In the supplement of paper PMC9170038:

Test system: K4 kissing-loop RNA reporter
Test: apparent KD of K4 kissing-loop reporter; higher = weaker reporter binding
Details: Eterna round: R107
Experimental: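 RNA-MaP round R107: designed RNA switches with theophylline, tryptophan, arginine or FMN aptamers are transcribed on-chip within common flanks. They are titrated with a labelled K4 kissing-loop RNA reporter in RNA-MaP buffer (100 mM Tris pH 7.5, 80 mM KCl, 4 mM MgCl2), without ligand or with the indicated ligand. Median apparent KD per design.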

[1] = input ligand: theophylline 20 uM
[2] = input ligand: tryptophan 2.4 mM
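Also: bound reporter read as fluorescence of individual clusters on recovered sequencing chips by microscopy, with normalized cluster intensities fitted with a binding model.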

Row | Sequence | apparent KD of K4 kissing-loop reporter (input ligand: FMN 200 uM) | apparent KD of K4 kissing-loop reporter (input ligand: arginine 13.2 mM) | apparent KD of K4 kissing-loop reporter (input ligand: none) | apparent KD of K4 kissing-loop reporter [1] | apparent KD of K4 kissing-loop reporter [2]
1 | AAGGGCUAGGCGGCCGCCACUUGUUGUGAACACAUACGAGCCAGUGAUGUUGGUAUUGUGUGCGGAAGGACCGGGCCUAGCCGAA [Exclusion - Tryptophan B (Freestyle 22)] | 178 nM | 226 nM | 228 nM | 224 nM | 302 nM
2 | UGCCGCAAGGCGAGCGCUCCCACUCCGGAAGGAGCGCCCGUAAGGGCAGGUAGGUCGCCGGAGUGAUGUUCCGGUGGAGGGCUCG [#2 Exclusion - Arginine A Attempt #24 (Inspired by Omei)] | 1270 nM | 283 nM | 537 nM | 398 nM | 351 nM
3 | AAACGUUGGUCGGAUACCAGCUUGAUCGGAAAACGAUCUGCUGGAGUGAUGUUCCAAUAAAGCCCUUGGCAGCCGACCGACGAAA [MAT - Same State Theophlline B - Mod of Eli - D15] | 662 nM | 659 nM | 1030 nM | 746 nM | 747 nM
4 | UCCUGCAAUCGACCACGAAAGUGGAUCGAUACCAGAGUCGAAAGACUCCCUUGGCAGCGAGUGAUGUUCGAAGCAGGUAAAUAAA [#SwitchBubble 22 #K4Late] | 520 nM | 383 nM | 453 nM | 464 nM | 383 nM
5 | UGUCAUUGGUCGGCCGCCACUUCAUGUAGAGUGAUGUUCUGUAGGACGGAUCGAAAGAUCUGUCGAAGGACCGGGACCGAUGACU [FiskerMod 14 - Jieux - Same State - Tryptophan B] | 818 nM | 725 nM | 1180 nM | 727 nM | 272 nM
6 | GAGAUAGCGACGGCCGCCACUAGUGAUGUUAGUGCUGGUAGAUAGAUACUGGAACAGAAAUGACGUAGGACCGGGUCAGAUAGAG [#01 K4 Tryptophan B Exclusion] | 264 nM | 233 nM | 292 nM | 334 nM | 247 nM
7 | UUAAUAUUGUCGGCCGCCACUGUUUAGUAUUUUGUAUAAUCUAUUUCAAAGUGAUGUUUUGAUUCCAGGACCGGGACAUUUGAUA [JR_Nu_ExcTryptoB_Sub031] | 597 nM | 414 nM | 536 nM | 486 nM | 298 nM
8 | AAUGCAUAGUGAAGGAGCGCGUAUAGCAGUGAUGUUGCUUACUUAUUAUUAUAUUAAUUGACGCAGGUAGGUCGCACUUUGCAUA [JR_ExcArginiB_Sub022] | 196 nM | 144 nM | 196 nM | 181 nM | 156 nM
9 | CCUGCAGCUGUUACCGAGGGAUGCUACGGACGAGGACCGGUACGGCCGCCACUCGCCAGUGAUGUUGGUGAGGGAGGACGUUACU [KL-XTryp-A21] | 137 nM | 107 nM | 109 nM | 103 nM | 107 nM
10 | UUAGAAGUAUACUUCAAGAGGUAUGCUGAUACCAGAGUCAAUUGACUCCCUUGGCAGCGGAUCGAGUGAUGUUCGUAACCUCAUU [AK3.1 SS Theophylline A] | 160 nM | 238 nM | 209 nM | 246 nM | 141 nM
11 | CGUUCCUCUGUCGAUACCAGCUUCAGUUGGCGGCCAGUGAUGUUGGUAUCGCCGAUGCCAAGCCCUUGGCAGCGACAGGAGACCC [Usleanza] | 155 nM | 165 nM | 211 nM | 95 nM | 163 nM
12 | UGAUACCAGACUGAUACCAGCAGUGAUGUUGCUGAAAAUAAUAAAUGAGUCAAAGACUCGGGCCCUUGGCAGCAGUCUGGUAUCU [TheoBX 8 #SwitchBubble #StaticStem] | 111 nM | 114 nM | 116 nM | 117 nM | 95.9 nM
13 | UGUAUGUGAUUUGAUACCAGACCAGUUGGUGGUAUAUGAGUGAUGUUUAUGUUGGUUUGGGUCCCUUGGCAGCAAAUCGCAUACU [KL-SSTheoB11] | 591 nM | 307 nM | 491 nM | 356 nM | 386 nM
14 | UGUACCGAGUCAGGAUAUGGCGUCGAAAGACGAAUUCUAGUGAUGUUAGGGAUCUGCGAAAGCAGUUCAGAAGGGACUUGGUACU [FmnBS 26 U36+U67] | 243 nM | 288 nM | 342 nM | 470 nM | 360 nM
15 | UUGCCUCUGGCUGAUACCAGUGAUGCAGGGUAUGAAACAGGGAGUGAUGUUCCCUGCAGCCACCCUUGGCAGCAGUUUAAGUUUG [Exclusion Theophylline B GF 21] | 182 nM | 152 nM | 181 nM | 158 nM | 160 nM
16 | UGUCUGAUGGAAACAUCGGACUUUACUGAUACCAGUAUCGAUAGAUACCCUUGGCAGCAGAAUCAGUAAUAACGAGUGAUGUUCG [Ex Theophylline A K4 3] | 347 nM | 280 nM | 386 nM | 317 nM | 310 nM

Row | Sequence | apparent KD of K4 kissing-loop reporter (input ligand: FMN 200 uM) | apparent KD of K4 kissing-loop reporter (input ligand: arginine 13.2 mM) | apparent KD of K4 kissing-loop reporter (input ligand: none) | apparent KD of K4 kissing-loop reporter [1] | apparent KD of K4 kissing-loop reporter [2]
17 | CCAUCGCUAUUCGAUACCAGUCAUCAAAUCUUUGGUUUGAUAAAGGAGUGAUGUUCCCAAGACCCUUGGCAGCGAAUAGUGAUGG [Theophylline B K4 10] | 252 nM | 212 nM | 224 nM | 175 nM | 230 nM
18 | UGACUGGACUGAAGGAGCGCUAAACUCCUAGUGAUGUUAGGAAAUACGAGACAAAGUCUCGGGCAGGUAGGUCGCAGUCUAGUCU [ArgBS 19 #SwitchBubble #StaticStem] | 122 nM | 118 nM | 132 nM | 128 nM | 101 nM
19 | UGUAUCAUCUAAGGAUAUAUCAUGUGAUGCACCGAGUAUCGCAUCAAUUCUGAGUGAUGUUCAGGUAUAGAAGGUAGAUGAUGCA [FMN B SS t2] | 207 nM | 178 nM | 212 nM | 259 nM | 228 nM
20 | UGACAUUGCUCAGAUACCAGACAAGAGGAUCACCCUUGUGCCAAACGUACAAUAAUAAUUGUCCCUUGGCAGCUGAGCAAUGUCU [TheoBX 14] | 73.2 nM | 25.4 nM | 16.3 nM | 80.7 nM | 51.6 nM
21 | UGACUGGAUGGAAGGAGCGCUAAACUCCUAGUGAUGUUAGGGAUAUGAGGCAAAGCCUCGAGGCAGGUAGGUCGCCAUCUAGUCU [FiskerMod 19 - Jieux - Same State - Arginine B] | 138 nM | 114 nM | 135 nM | 142 nM | 122 nM
22 | UGAUACCAGACUGAUACCAGCGAGUGAUGUUCGUUGAAAUCAGGGUCAAAGACCCUGUCUCGCCCUUGGCAGCAGUCUGGUAUCU [TheoBX 22 #SwitchBubble #StaticStem] | 690 nM | 704 nM | 829 nM | 320 nM | 785 nM
23 | UGUGUUUACCUGACUCAGUGAUGUUGAGAAGGAGCGUGCGAAAGCACAGGUAGGUCGCUCAAUCCUUAAUCAGGUGAGCACUAAA [#SwitchBubble 13 #K4Early] | 394 nM | 507 nM | 502 nM | 447 nM | 359 nM
24 | UAGGAGUGAUGUUCCAUAUCUUGAGCCGAAGGAGCGGCAUUAUAGCCAGGUAGGUCGCGGCAGAAGGUACCAGUGAUGUUGGAAA [Same State Arginine A GF5] | 182 nM | 160 nM | 206 nM | 202 nM | 173 nM
25 | GCCGUAGAUGGAAGGAGCGUGAAUGGCCUCUAUCCAAAGUGAUGUUUUGUUGAAGACUGUUCACAGGUAGGUCGCCAUCUACGGC | 165 nM | 125 nM | 135 nM | 135 nM | 140 nM
26 | UGGUCUGCACGAAGGAGCGCCCUGACAGGUUGCUGCCGUGGGCAGUGAUGUUGCUUAGUCCGGCAGGUAGGUCGCGUGCAGACCA | 210 nM | 205 nM | 243 nM | 189 nM | 170 nM
27 | GCCGUACGCAUGGAUACCAGCUUGUCCGAGUGAUGUUCGGGUCUGAAUGCCGGUAAUAAGAGCCCUUGGCAGCCAUGCGUACGGC | 137 nM | 104 nM | 124 nM | 117 nM | 123 nM
28 | AAGGGCAGGACUUCCUUGCCGGAUAGAGAUACCAGCCCAGCAAAGGGCCCUUGGCAGCUCACUGACCUCAGUGAUGUUGAGGUUC [Xebisoer] | 369 nM | 268 nM | 332 nM | 272 nM | 297 nM
29 | GCCUAGCAGGGAAGGAGCGCCAUAUAAUUAAAAGGUAAUUAAUGAGUGAUGUUCAAAUAAUGGCAGGUAGGUCGCCCUGCUAGGC [KL-SSArg B10] | 316 nM | 277 nM | 283 nM | 354 nM | 283 nM
30 | CCAACAACGAGUGAUGUUCGUUGAUCAGAAGGAGCGUCAAUAAUGACAGGUAGGUCGCUGAUAAUUGGAAAUAGGGCAAUAGCUU [Same State Arginine A GF12] | 110 nM | 113 nM | 115 nM | 120 nM | 105 nM
31 | CUGACGCUGAUACGGUGGCCGCUGGUCGUGCGAGGACCGGUACGGCCGCCACUCGCAUGAGUGAUGUUCAUGUGUCGUCGUCGUC [#07 K4 Tryptophan A Exclusion] | 122 nM | 108 nM | 113 nM | 105 nM | 123 nM
32 | ACGGAUUCGAAUACCGAAUGAAAUAGGGAUACCAGCACGUGAACGUGCCCUUGGCAGCCCAGCCCAGUGAUGUUGGGCCCAUGGC [Biso] | 173 nM | 185 nM | 179 nM | 212 nM | 204 nM
